Test results published in patent publication CN115925884A.

Biological target: EBV gB重组蛋白 (recombinant EB virus gB protein with C-terminal 6xHis tag) (EB病毒 (Epstein-Barr virus)) (UniProt P0C762)
Experiment: BLI, biotinylated gB on SA biosensor, control antibody in solution

“对照抗体AMMO5 (anti-EBV gB recombinant antibody, clone AMMO5)” showed a Kd of 0.302 nM.
